Legend:
[1] = molecular target: protein C S12C/R312C mutant, labeled with AF555/AF647 (two-chain zymogen) (human) (UniProt P04070); assay: other fluorescence titration; single molecule FRET of freely diffusing labeled protein C or APC (150 pM) titrated with thrombin S195A; shift of the peak center of the low FRET population, single-site fit; 20 mM Tris, 145 mM NaCl, 0.02% Tween 20, pH 7.5, 10 mM EDTA, 20 °C
[2] = molecular target: activated protein C S12C/R312C mutant, labeled with AF555/AF647 (human) (UniProt P04070); assay: as above

Substance “thrombin, catalytically inactive mutant S195A (enzyme)” has a Kd [1] of 0.86 µM and a Kd [2] of 1.1 µM.
